Results: publication PMC3365488 (Biochemistry, 2012)

Biological target: T1, CheY complexed with the unlinked CheA P2 domain (E. coli, UniProt P0AE67 1-129; P07363 156-229)
T1 sequence (looked up) 1: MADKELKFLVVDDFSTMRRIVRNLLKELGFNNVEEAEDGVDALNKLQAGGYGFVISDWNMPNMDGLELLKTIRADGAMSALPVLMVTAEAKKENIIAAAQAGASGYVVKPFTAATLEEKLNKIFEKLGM
T1 sequence (looked up) 2: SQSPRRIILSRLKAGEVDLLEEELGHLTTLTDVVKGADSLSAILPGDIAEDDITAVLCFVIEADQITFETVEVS
Experiment: NMR titration

B1: CheA P1 domain (residues 1-134) (domain or fragment, E. coli, UniProt P07363 1-134, looked up)
chain: MSMDISDFYQTFFDEADELLADMEQHLLVLQPEAPDAEQLNAIFRAAHSIKGGAGTFGFSVLQETTHLMENLLDEARRGEMQLNTDIINLFLETKDIMQEQLDAYKQSQEPDAASFDYICQALRQLALEAKGET
Which Kd does the source give for B1 here?
The Kd was roughly 4.5 mM.
